Experiments:
HeLa Tet3G cells = test: Glucose concentration-dependent cell survival; assay type: cell-based, human
Procedure: Images of 96-well plates with fixed cells stained with Hoechst 33345 were collected using Molecular Devices IMAGEXPRESS® Micro XLS. Four images were taken to cover the whole well. Images were analyzed and nuclei number per well was counted using CellProfiler 2.0 image analysis software (Carpenter, et al., Genome Biol., 7:R100, 2006; and Kamentsky, et al., Bioinformatics, 27:1179, 2011).
Ten thousand HeLa Tet3G NDI1, Luciferase, LbNOX or mitoLbNOX cells were seeded in 200 μl of DMEM (DMEM (US Biological, D9800), 3.7 g/L NaHCO3, 10% dialyzed FBS (Life Technologies, 26400-044)) per well of a black 96-well plate with clear bottom (Corning, 3904). Twenty four hours after seeding, 10 μl of 6 μg/ml doxycycline (300 ng/ml final concentration) or water was added to each well. Twenty four hours after addition of doxycycline, media was exchanged to DMEM (DMEM (US Biological, D9800), 3.7 g/L NaHCO3, 10% dialyzed FBS (Life Technologies, 26400-044))±300 ng/ml doxycycline. […] After 24 hours, media was aspirated and cells were fixed by adding 100 μl of 4% paraformaldehyde in PBS and incubating at room temperature for at least 30 min. Paraformaldehyde solution was aspirated and cells were stained with 200 μl of 1 μg/ml Hoechst 33345. Plates were covered with sealing aluminum foil and stored at 4° C. before counting cells in each well with Molecular Dynamics IMAGEXPRESS® Ultra (see “Nuclei counting using Molecular Devices IMAGEXPRESS® Ultra,” above).

[1] = Enzyme-monitored turnover (stopped flow, FAD absorbance at 455 nm); assay type: biochemical
Procedure: The experiment was carried out by monitoring the time dependence of FAD oxidation state via its absorbance at 455 nm in 50 mM NaPi pH7.5 150 mM NaCl buffer at 4° C. Air-saturated LbNOX (1.9, 2.9, 5.6 and 9.18 μM FAD active sites after mixing) and air-saturated solution of NADH (2 mM after mixing). The traces at 455 nm are treated as records of the rate of catalysis as a continuous function of the concentration of O2 (the limiting substrate).
The reaction of LbNOX with oxygen was studied by the enzyme-monitored turnover method (Gibson, et al., J. Biol. Chem., 239:3927, 1964; and Tapley, et al., J. Biol. Chem., 282:10263, 2007). Rapid reaction studies were carried out at 4° C. in a SX20 stopped flow instrument (Applied Photophysics, UK) equipped with a diode array detector. To follow the redox state of the FAD cofactor, LbNOX enzyme (1.9, 2.9, 5.6 and 9.18 μM FAD active sites after mixing) was mixed with NADH (2 mM after mixing), both prepared in air-saturated assay buffer (50 mM Na2HPO4, pH 7.5, 150 mM NaCl) and absorbance at 455 nm was monitored over time. Solubility of oxygen at 4° C. was calculated from oxygen solubility table at corresponding salinity of the assay buffer which is ˜380 μM. Results represent (n=3) independent experiments. The traces at 455 nm reflect the conversion of oxidized to reduced enzyme forms and are treated as previously described (Gibson, et al., J. Biol. Chem., 239:3927, 1964), where the area under the curve is proportional to the concentration of oxygen which is a limiting substrate under these conditions. […] We therefore estimated that apparent KM for O2 to be less than 2 μM. Based on the enzyme concentration (1.9-9.18 μM) and time it took to consume O2 (8.12-1.67 sec), apparent kcat can be calculated (FIG. 7).

B1: LbNOX: water-forming NADH oxidase endogenous to Lactobacillus brevis; tested with C-terminal FLAG tag (protein, listed as Lactobacillus brevis)
chain: KVTVVGCTHAGTFAIKQILAEHPDAEVTVYERNDVISFLSCGIALYLGGKVADPQGLFYSSPEELQKLGANVQMNHNVLAIDPDQKTVTVEDLTNHAQTTESYDKLVMTSGSWPIVPKIPGIDSDRVKLCKNWAHAQALIEDAKEAKRITVIGAGYIGAELAEAYSTTGHDVTLIDAMARVMPKYFDADFTDVIEQDYRDHGVQLALGETVESFTDSATGLTIKTDKNSYETDLAILCIGFRPNTDLLKGKVDMAPNGAIITDDYMRSSNPDIFAAGDSAAVHYNPTHQNAYIPLATNAVRQGILVGKNLVKPTVKYMGTQSSSGLALYDRTIVSTGLTLAAAKQQGLNAEQVIVEDNYRPEFMPSTEPVLMSLVFDPDTHRILGGALMSKYDVSQSANTLSVCIQNENTIDDLAMVDMLFQPNFDRPFNYLNILAQAAQAKVAQSVNA
modifications: C-terminal FLAG tag
effect on decrease in cell number (cell survival) at low glucose concentrations in the presence of piericidin (HeLa Tet3G cells; 1 μM piericidin, 24 hours): no effect
effect on decrease in cell number (cell survival) at low glucose concentrations in the presence of antimycin (HeLa Tet3G cells; antimycin): no effect
apparent KM for O2, fold lower than the concentration of oxygen in human venous blood [1]: more than 10 fold
apparent KM for O2 expressed as % O2 ([1]; estimated from enzyme-monitored turnover): ~0.17 % O2
Km ([1]; estimated from enzyme-monitored turnover, 4° C., read-out: apparent KM for O2): < 2 µM

— patent publication US11866736B2, “Protein prostheses for mitochondrial diseases or conditions” (The General Hospital Corporation, priority 2015, dated 2024)
